# Assay results: US12559749B2, “Methods of rescuing stop codons via genetic reassignment with ACE-tRNA” (UNIVERSITY OF IOWA RESEARCH FOUNDATION, priority 2017, dated 2026)
# B1: Glychr19.trna2: top performing glycine ACE-tRNA UGA, SEQ ID NO: 53 (nucleic acid)
# chain: GCGUUGGUGGUAUAGUGGUUAGCAUAGCUGCCUUCAAAGCAGUUGACCCGGGUUCGAUUCCCGGCCAACGCA
# modifications: chemistry not given here
# Legend:
# NanoLuc-TGA, TAA or TAG = assay type: cell-based, human; conditions: transiently transfected HEK293 cells; listed as Glychr19.t2
# [1] = test system: native stop codons (TAA, TAG, TGA), 3′UTR ribosome density; assay: Ribosome footprint profiling of transcriptome-wide 3′UTRs, HEK293 cells; assay type: cell-based, human
# Text: The question was raised whether ACE-tRNAs that show efficacious suppression of premature stop codons may also induce global readthrough of native stop codons. To address this potential “off target” suppression, a transcriptome-wide quantitative profile of actively engaged ribosomes on all cellular transcripts was obtained by generating libraries of ribosome footprints from HEK293 cells expressing exogenous ACE-tRNAs or a control mock plasmid (puc57GG). Streptomycin was removed from the growth media to prevent readthrough artifacts. For comparison, the ribosome footprint library was also generated from cells in the presence or absence of G418 (150 μM, 48 h). […] Only transcripts with a minimum threshold of 5 RPKM in the coding sequence and 0.5 RPKM in the 3′UTR in two replicate libraries were included for the quantitation comparison (254 transcripts in G418 and 495-748 transcripts in ACE-tRNAs). […] ACE-tRNAs examined here had no detectable change of 3′UTR ribosome density with the exception of ACE-tRNA Gln-UAA and Arg-UGA which induced approximately a 2-fold increase in 3′UTR ribosome density for the cognate stop codon complimentary to the ACE-tRNA anticodon. Understanding the biological significance of 2-fold readthrough of protein stops will require further study, but this effect is substantially lower compared to the 100- to 1000-fold suppression of PTC for the same ACE-tRNA.
# Multiple in-frame stop codons are frequently found at the end of genes 37-39 and may cause a minor difference in overall 3′UTR ribosome density for ACE-tRNA and G418 treatment. Ribosome occupancy was examined at each nucleotide in the 3′UTR within a 60 nt region downstream of the stop codons. […] Reads were normalized per total million-mapped reads, compared against control cells, and reported as a log 2-fold change as in panel A. More than 5,200 transcripts were mapped to at least 1 footprint in the region of interest. […] Taken together, the ribosome profiling data argue that efficiency of native stop codon suppression by ACE-tRNAs is generally low, and markedly less than the level of PTC suppression.
# Ribosome Footprint Profiling Library preparation. HEK293 cells transiently transfected with ACE-tRNAs and control plasmid (puc57GG) were grown in standard grown media in the absence of Pen-Strep for 48 h. Libraries were prepared as described^55, with a few modifications. Briefly, cells were rapidly cooled by addition of ice-cold PBS, lysed in lysis buffer (20 mM Tris-HCl/pH7.4, 150 mM NaCl, 5 mM MgCl2, 1 mM DTT, 1% (v/v) Triton X-100, and 25 U ml^−1 Turbo DNase I) for 10 min on ice, and triturated with ten times through a 26-G needle. […]
molecule,measurement,setting,value
B1,stop codon selectivity (UGA over UAA and UAG),"NanoLuc-TGA, TAA or TAG",selectively suppresses the UGA stop codon
same,readthrough of native stop codons / effect on global translation termination,[1]; discussion of profiling data,no significant effect on global translation termination
same,ribosome occupancy in the early region of 3′UTR downstream of stop codons,"[1]; per nucleotide, -35 to +65 nt",no observable change of ribosome occupancy
